Data from patent US20180064827.

Tests used:
Test in all cases: cell_activity
[1] = test system: ZFN 66079 (synthetic); conditions: pair with 64555, 5 ug/mL
[2] = test system: ZFN 66075 (synthetic); conditions: pair with 64555, 5 ug/mL
[3] = test system: ZFN 64552 (synthetic); conditions: pair with 66083 or 66084, 5 ug/mL
[4] = test system: ZFN 60289 (synthetic); conditions: pair with 60287, K562
[5] = test system: ZFN 60137 (synthetic); conditions: pair with 60334, K562
[6] = test system: ZFN 60043 (synthetic); conditions: pair with 60045, K562
[7] = test system: ZFN 64989 (synthetic); conditions: pair with 65021, Hepa1-6
[8] = test system: ZFN 64992 (synthetic); conditions: pair with 65021, Hepa1-6
[9] = test system: ZFN 60392 (synthetic); conditions: pair with 65022, Hepa1-6
[10] = test system: ZFN 64952 (synthetic); conditions: pair with 64944, Hepa1-6
[11] = test system: ZFN 64951 (synthetic); conditions: pair with 64946, Hepa1-6
[12] = test system: ZFN 60413 (synthetic); conditions: pair with 64944, Hepa1-6
[13] = test system: ZFN 60416 (synthetic); conditions: pair with 64866, Hepa1-6
[14] = test system: ZFN 64859 (synthetic); conditions: pair with 64869, Hepa1-6
[15] = test system: ZFN 64848 (synthetic); conditions: pair with 64866, Hepa1-6
[16] = test system: ZFN 60133 (synthetic); conditions: pair with 60134, K562
[17] = test system: ZFN 60254 (synthetic); conditions: pair with 60259, K562; N7a version 60256 gave 74.32
[18] = test system: ZFN 60502 (synthetic); conditions: pair with 64066, HepG2, 40 ug/mL
[19] = test system: ZFN 67458 (synthetic); conditions: pair with 60501, HepG2, 40 ug/mL
[20] = test system: ZFN 64080 (synthetic); conditions: pair with 60501, HepG2, 40 ug/mL
[21] = test system: ZFN 65085 (synthetic); conditions: pair with 65098, Hepa1-6
[22] = test system: ZFN 65086 (synthetic); conditions: pair with 65094, Hepa1-6
[23] = test system: ZFN 58780 (synthetic); conditions: pair with 65094, Hepa1-6
[24] = test system: ZFN 60417 (synthetic); conditions: pair with 64859, Hepa1-6
[25] = test system: ZFN 64869 (synthetic); conditions: pair with 64859, Hepa1-6
[26] = test system: ZFN 64866 (synthetic); conditions: pair with 64859, Hepa1-6
[27] = test system: ZFN 60750 (synthetic); conditions: pair with 67495, HepG2, 40 ug/mL
[28] = test system: ZFN 25277 (synthetic); conditions: pair with 25264, K562, 200 ng
[29] = test system: ZFN 64066 (synthetic); conditions: pair with 60502, HepG2, 40 ug/mL
[30] = test system: ZFN 60501 (synthetic); conditions: pair with 67458, HepG2, 40 ug/mL
[31] = test system: ZFN 67451 (synthetic); conditions: pair with 60502, HepG2, 40 ug/mL
[32] = test system: ZFN 60259 (synthetic); conditions: pair with 60254, K562
[33] = test system: ZFN 64946 (synthetic); conditions: pair with 64951, Hepa1-6
[34] = test system: ZFN 64947 (synthetic); conditions: pair with 64952, Hepa1-6
[35] = test system: ZFN 64944 (synthetic); conditions: pair with 64952, Hepa1-6
[36] = test system: ZFN 60412 (synthetic); conditions: pair with 64951, Hepa1-6
[37] = test system: ZFN 64842 (synthetic); conditions: pair with 64793, Hepa1-6
[38] = test system: ZFN 60423 (synthetic); conditions: pair with 64793, Hepa1-6
[39] = test system: ZFN 64844 (synthetic); conditions: pair with 64793, Hepa1-6

ACTTGCTGCATATGTGGCTAAAGCAATA (double strand) [M. mulatta HAO1 left]
activity [1]: 84.2 % indel | activity [2]: 86.9 % indel | activity [3]: 80.6 % indel

AGAGAAGTGGATCAGTCTCTGCCTCAAC (double strand) [human PCSK9 60289 site]
activity [4]: 73.1 % indel

AGATGGGGGTCTTACCGGGGGGCTGGTA (double strand) [human PCSK9 60137 site]
activity [5]: 67.9 % indel

AGGATCCGTGGAGGTTGCCTGGCACCTA (double strand) [human PCSK9 60043 site]
activity [6]: 65.4 % indel

AGGATGGAGATTATGAAGAGCTGATGCT (double strand) [mouse PCSK9 site G left]
activity [7]: 83.3 % indel | activity [8]: 79.8 % indel | activity [9]: 69.2 % indel

CACATGGGGCAACTTCAGGGCCTACAGA (double strand) [mouse PCSK9 site E right]
activity [10]: 49.1 % indel | activity [11]: 51.3 % indel | activity [12]: 41.4 % indel

CAGAGCATCCCATGGAACCTGGAGCGAA (double strand) [mouse PCSK9 site B left]
activity [13]: 35.7 % indel | activity [14]: 82.4 % indel | activity [15]: 73.6 % indel

CCGCCCGGTACCGTGGAGGGGTAATCCG (double strand) [human PCSK9 60133 site]
activity [16]: 72.6 % indel

CGCTGCCGGCAACTTCCGGGACGATGCC (double strand) [human PCSK9 60254 site]
activity [17]: 75.7 % indel

CTGCCTTGCTGGACTGGTATTTGTGTCT (double strand) [human TTR 60502 site]
activity [18]: 37.3 % indel | activity [19]: 47.6 % indel | activity [20]: 47 % indel

CTGGAGGCTGCCAGGAACCTACATTGTG (double strand) [mouse PCSK9 site J left]
activity [21]: 73.5 % indel | activity [22]: 77.8 % indel | activity [23]: 69.6 % indel

CTGGTGCCATGCTGGGATAATTCGCTCC (double strand) [mouse PCSK9 site B right]
activity [24]: 53 % indel | activity [25]: 82.4 % indel | activity [26]: 79 % indel

CTTACTGGAAGGCACTTGGCATCTCCCC (double strand) [human TTR 60750 site]
activity [27]: 61.8 % indel

GAAAGGGACTGAAGCTGCTGGGGCCATG (double strand) [SERPINA1 25277 site]
activity [28]: 40.9 % indel

GAGCAGACGATGAGAAGCCATCCTGCCA (double strand) [human TTR 60501 site]
activity [29]: 37.3 % indel | activity [30]: 47.6 % indel | activity [31]: 36.6 % indel

GAGGCTGGGGAGTAGAGGCAGGCATCGT (double strand) [human PCSK9 60259 site]
activity [32]: 75.7 % indel

GCTAAGTGCATGGCTGTCTGGTTCTGTA (double strand) [mouse PCSK9 site E left]
activity [33]: 51.3 % indel | activity [34]: 42 % indel | activity [35]: 49.1 % indel | activity [36]: 28.6 % indel

GGCACGCTGTTGAAGTCGGTGATGGTGA (double strand) [mouse PCSK9 site A right]
activity [37]: 44.9 % indel | activity [38]: 35.8 % indel | activity [39]: 42.9 % indel
